Where no end group is shown, it is not given here. [ ]: non-standard residue; d: D form. The star is where a group is joined. βGlc = OC[C@H]1O[C@@H](*)[C@H](O)[C@@H](O)[C@@H]1O; Nle = CCCC[C@H](N)C(=O)O

One experiment deals with T1, VPAC1.
T1 sequence (P32241 whole entry, species assumed, looked up): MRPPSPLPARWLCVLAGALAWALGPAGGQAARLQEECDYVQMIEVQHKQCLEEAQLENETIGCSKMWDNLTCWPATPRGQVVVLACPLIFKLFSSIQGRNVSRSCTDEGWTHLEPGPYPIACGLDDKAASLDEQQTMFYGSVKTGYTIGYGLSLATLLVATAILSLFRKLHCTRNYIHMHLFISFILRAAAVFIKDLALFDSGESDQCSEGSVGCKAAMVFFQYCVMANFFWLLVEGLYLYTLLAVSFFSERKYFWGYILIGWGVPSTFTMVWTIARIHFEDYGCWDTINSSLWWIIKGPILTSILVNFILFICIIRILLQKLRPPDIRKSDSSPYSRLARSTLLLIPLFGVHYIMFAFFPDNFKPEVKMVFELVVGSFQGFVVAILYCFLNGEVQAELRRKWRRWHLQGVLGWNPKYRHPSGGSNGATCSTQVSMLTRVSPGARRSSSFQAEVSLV
Briefly: cell-based or functional assay.

For a further experiment, the target named is T2, VPAC2.
T2 sequence (P41587 whole entry, species assumed, looked up): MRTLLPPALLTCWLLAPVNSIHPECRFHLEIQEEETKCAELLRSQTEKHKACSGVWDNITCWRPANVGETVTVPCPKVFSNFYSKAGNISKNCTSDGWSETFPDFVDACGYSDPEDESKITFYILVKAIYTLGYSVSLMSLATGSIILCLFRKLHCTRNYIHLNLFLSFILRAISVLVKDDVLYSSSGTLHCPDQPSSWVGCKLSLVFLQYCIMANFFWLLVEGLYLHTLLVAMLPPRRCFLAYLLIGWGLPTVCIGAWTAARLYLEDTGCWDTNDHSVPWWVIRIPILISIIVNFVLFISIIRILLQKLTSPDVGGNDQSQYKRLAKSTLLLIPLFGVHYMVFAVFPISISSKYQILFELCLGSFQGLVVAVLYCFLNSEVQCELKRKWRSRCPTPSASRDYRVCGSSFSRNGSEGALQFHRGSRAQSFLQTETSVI
Briefly: cell-based or functional assay.

B1: HsDGIFTDSYSRYRKQÑAVKKYLAAV-Ser(Glc) (peptide)
peptide: HSDGIFTDSYSRYRKQXAVKKYLAAVS
modifications: D-Serine at 2 (s); L-Nor-Leucine at 17 (Ñ, written X in letters); Ser 27 = L-Ser(β-D-Glc)
As to B1, the “EC50 (agonist)” value was 4.8 nM with VPAC1 and 654 nM with VPAC2. Moreover, the entries for the “EMax (agonist)” value with VPAC1 and with VPAC2 were 90% and 107%, respectively.
Regarding H[dS]DGIFTDSYSRYRKQ[Nle]AVKKYLAALS(βGlc)L-NH2 (ends and bridges not checked) [HsDGIFTDSYSRYRKQÑAVKKYLAAL-Ser(Glc)-L], in the experiment with VPAC1, the “EC50 (agonist)” value worked out at 5.9 nM and the “EMax (agonist)” value came to 93%. Also, in the experiment with VPAC2, the “EC50 (agonist)” value was more than 2500 nM and the “EMax (agonist)” value is -95%.
Take HSDGIFTDSYSRYRKQLAVKKYLAAVLS(melibiose)-NH2 [HSDGIFTDSYSRYRKQLAVKKYLAAVL-Ser(Mel)]: in the experiment with VPAC1, the “EC50 (agonist)” value stood at 0.55 nM and the “EMax (agonist)” value was 102%. For the same molecule, in the experiment with VPAC2, the “EC50 (agonist)” value turned out to be 9.4 nM and the “EMax (agonist)” value worked out at 86%.

B2: HsDGIFADSYSRYRKQÑAVKKYLAAVL-Ser(Glc) (peptide)
peptide: HSDGIFADSYSRYRKQXAVKKYLAAVLS
modifications: D-Serine at 2 (s); L-Nor-Leucine at 17 (Ñ, written X in letters); Ser 28 = L-Ser(β-D-Glc)
As to B2, in the experiment with VPAC1, the “EC50 (agonist)” value is 78.8 nM and the “EMax (agonist)” value is 93%. In addition, in the experiment with VPAC2, the “EC50 (agonist)” value was more than 2500 nM and the “EMax (agonist)” value was -42%.

B3: HsDGIFADSYSRYRKQÑAVKKYLAAV-Ser(Glc) (peptide)
peptide: HSDGIFADSYSRYRKQXAVKKYLAAVS
modifications: D-Serine at 2 (s); L-Nor-Leucine at 17 (Ñ, written X in letters); Ser 27 = L-Ser(β-D-Glc)
For the molecule B3, in the experiment with VPAC1, the “EC50 (agonist)” value is 1370 nM and the “EMax (agonist)” value amounted to 85%.
Turning to H[dS]DGIFADSYSRYRKQ[Nle]AVKKYLAAVS(βGlc)L-NH2 (ends and bridges not checked) [HsDGIFADSYSRYRKQÑAVKKYLAAV-Ser(Glc)-L], in the experiment with VPAC1, the “EC50 (agonist)” value amounted to 1620 nM and the “EMax (agonist)” value came out at 78%.
Regarding HSDGIFTDSYSRYRKQMAVKKYLAAVL (ends and bridges not checked) [PACAP1-27], the “EMax (agonist)” value with VPAC1 turned out to be 100%.

B4: HsDGIFTDSYSRYRKQÑAVKKYLAAVL-Ser(Glc) (peptide)
peptide: HSDGIFTDSYSRYRKQXAVKKYLAAVLS
modifications: D-Serine at 2 (s); L-Nor-Leucine at 17 (Ñ, written X in letters); Ser 28 = L-Ser(β-D-Glc)
For B4, in the experiment with VPAC1, the “EC50 (agonist)” value came out at 1.3 nM and the “EMax (agonist)” value stood at 90%. In the experiment with VPAC2, the “EC50 (agonist)” value is 241 nM and the “EMax (agonist)” value is 104%.

For the origin of these results see patent publication US20240294595A1 (ARIZONA BOARD OF REGENTS ON BEHALF OF THE UNIVERSITY OF …, published 2024).
